Substitutions are numbered along the chain they refer to.
B1: 52H5D3B8-6#-VH3+VL4 (antibody, V domains shown)
VH: QVQLVQSGAEVKKPGASVKVSCKALGYTFTDYEMHWVKQAPGQGLEWIGAIHPGSGGTAYNQKFKGRVTLTADTSTSTVYMELSSLRSEDTAVYYCTRYYSYAYWGQGTLVTVSS
VL: DIVMTQTPLSLSVTPGQPASISCRSSQSLVHSNGNTYLQWYLQKPGQSPKLLIYKVSNRFSGVPDRFSGSGSGTDFTLKISRVEAEDVGVYFCFQSIHVPYTFGGGTKLEIK
notes: humanized
B2: 52H5D3B8-6#-VH4+VL2 (antibody, V domains shown)
VH: B1 VH with V68A, L70M, T74K, S75F
VL: B1 VL with K50Q
notes: humanized
B3: 52H5D3B8-6#-VH4+VL4 (antibody, V domains shown)
VH: B1 VH with V68A, L70M, T74K, S75F
VL: B1 VL
notes: humanized
B4: 52H5D3B8-6#-VH4+VL3 (antibody, V domains shown)
VH: B1 VH with V68A, L70M, T74K, S75F
VL: B1 VL with F92Y
notes: humanized
B5: 52H5D3B8-6#-VH4+VL1 (antibody, V domains shown)
VH: B1 VH with V68A, L70M, T74K, S75F
VL: B1 VL with K50Q, F92Y
notes: humanized
B6: Hu 52H5D3B8-2 (antibody, V domains shown)
VH: EVQLVQSGAEVKKPGASVKVSCKASGYTFTDYEMHWVRQAPGQGLEWMGAIHPGSGGTAYNQKFKGRVTMTRDTSISTAYMELSRLRSDDTAVYYCARFYSYAYWGQGTLVTVSS
VL: B1 VL with I2V, K50Q, F94S, L109V
notes: humanized 52H5D3B8; also called 52H5D3B8 VH0 + VL1
B7: Hu 52H5D3B8-9 (antibody, V domains shown)
VH: B6 VH with M48I, M70L, R72A, T74K, A97T
VL: B1 VL with I2V, K50Q, F92Y, F94S, L109V
notes: humanized 52H5D3B8; also called 52H5D3B8 VH4 + VL0
B8: Hu 52H5D3B8-6 (antibody, V domains shown)
VH: B6 VH with R72A, A97T
VL: B1 VL with I2V, K50Q, F94S, L109V
notes: humanized 52H5D3B8; also called 52H5D3B8 VH2 + VL1
B9: Hu 52H5D3B8-5 (antibody, V domains shown)
VH: B6 VH with R72A, A97T
VL: B1 VL with I2V, K50Q, F92Y, F94S, L109V
notes: humanized 52H5D3B8; also called 52H5D3B8 VH2 + VL0

Target: T1, human GPC3 on cells (human, UniProt P51654 25-554)
T1 construct: whole, on cells; over-expressed on CHOK1 cells or endogenous on HEPG2, Hep3B and Huh-7 hepatocellular carcinoma cells; the cell line is named under assay; also called GPC3-CHOK1 cells; human GPC3 over-expressed CHOK1 cells
Assay: FACS, GPC3-CHOK1 cells
Description: (§1) To evaluate the antigen binding property, the humanized antibodies were analyzed for their binding to human GPC3 over-expressed CHOK1 cells, HEPG2 cells, Hep3B cells and Huh-7 cells by FACS. Briefly, GPC3-CHOK1 cells, HEPG2 cells, Hep3B cells and Huh-7 cells were firstly incubated with Fc blocking reagent at 4° C. for 15 mins. Cells were washed by FACS buffer and divided to each well with 4-fold serially diluted humanized antibodies starting at 10 μg/mL at 4° C. for 60 mins. Cells were washed by FACS buffer and fixed with 2% PFA at RT for 15 mins. […] The 16 humanized antibodies were separated into two plates.

| EC50 [µg/mL] | Binder |
| --- | --- |
| 0.0419 | B1 |
| 0.0425 | B2 |
| 0.0367 | B3 |
| 0.0379 | B4 |
| 0.0387 | B5 |

Target: T2, human GPC3-his tag protein (human, UniProt P51654 25-559, limits assumed)
T2 construct: recombinant soluble antigen used as analyte in all Biacore runs; also called recombinant GPC3 protein; rhGPC3-His; not shown: His tag
Assay: SPR Biacore 8K, mAb captured, affinity ranking
Description: To evaluate antigen binding activity, the chimeric antibody's affinity was measured by Biacore 8K. Two concentrations with most close affinity to the chimeric antibody's affinity were chosen for the 12 humanized antibodies' affinity detection. Human GPC3-his tag protein was injected over captured antibody for 3 mins at a flow rate of 30 μl/min. The antigen was allowed to dissociate for 720 s.

| Kd [nM] | koff [s⁻¹] | kon [M⁻¹ s⁻¹] | Binder |
| --- | --- | --- | --- |
| 5.71 | 0.00163 | 285000 | B6 |
| 4.18 | 0.00102 | 244000 | B7 |
| 2.94 | 0.000961 | 327000 | B8 |
| 2.87 | 0.000916 | 319000 | B9 |

Target: T1, human GPC3 on cells
Assay: FACS, HEPG2 cells
Description: as §1

| EC50 [µg/mL] | Binder |
| --- | --- |
| 0.0422 | B1 |
| 0.0435 | B2 |
| 0.0367 | B3 |
| 0.0391 | B4 |
| 0.04 | B5 |

Target: T1, human GPC3 on cells
Assay: FACS, GPC3-CHOK1 cells
Remark: another data set of the same source
Description: as §1, with “CHOK1” for “CHOK1 cells, HEPG2 cells, Hep3B”, “GPC3-CHOK1” for “GPC3-CHOK1 cells, HEPG2 cells, Hep3B”, “As different plates might affect the EC50 of 52H5D3B8-VH+VL, the 12” for “The 16”

| EC50 [µg/mL] | Binder |
| --- | --- |
| 0.0338 | B6 |
| 0.0572 | B7 |
| 0.0509 | B8 |
| 0.0544 | B9 |

Target: T1, human GPC3 on cells
Assay: FACS, Hep3B cells
Description: as §1

| EC50 [µg/mL] | Binder |
| --- | --- |
| 0.0629 | B1 |
| 0.0627 | B2 |
| 0.047 | B3 |
| 0.0511 | B4 |
| 0.0565 | B5 |

Target: T1, human GPC3 on cells
Assay: FACS, Huh-7 cells
Description: as §1

| EC50 [µg/mL] | Binder |
| --- | --- |
| 0.0322 | B1 |
| 0.0326 | B2 |
| 0.0259 | B3 |
| 0.0287 | B4 |
| 0.0306 | B5 |

Target: T1, human GPC3 on cells
Assay: FACS, Huh-7 cells
Remark: another data set of the same source
Description: as §1, with “CHOK1” for “CHOK1 cells, HEPG2 cells, Hep3B”, “GPC3-CHOK1” for “GPC3-CHOK1 cells, HEPG2 cells, Hep3B”, “As different plates might affect the EC50 of 52H5D3B8-VH+VL, the 12” for “The 16”

| EC50 [µg/mL] | Binder |
| --- | --- |
| 0.0195 | B6 |
| 0.0348 | B7 |
| 0.0295 | B8 |
| 0.0402 | B9 |

Target: T2, human GPC3-his tag protein
Assay: SPR Biacore 8K, mAb captured, affinity ranking
Remark: another data set of the same source
Description: To evaluate antigen binding activity, the chimeric antibody's affinity was measured by Biacore 8K. A serial dilution of human GPC3-his tag protein was injected over captured chimeric antibody 52H5D3B8-6 #-VH+VL for 3 mins at a flow rate of 30 μl/min. The antigen was allowed to dissociate for 720 s. Among the multi detection doses, two concentrations with most close affinity to the chimeric antibody's affinity were chosen for the 16 humanized antibodies' affinity detection.

| Kd [nM] | koff [s⁻¹] | kon [M⁻¹ s⁻¹] | Binder |
| --- | --- | --- | --- |
| 0.725 | 0.000516 | 711000 | B1 |
| 1.05 | 0.000674 | 642000 | B2 |
| 0.857 | 0.000593 | 692000 | B3 |
| 0.847 | 0.000601 | 709000 | B4 |
| 1.01 | 0.000646 | 643000 | B5 |
